Results: patent US20190100588A1
Changes are numbered by the printed parent chain.

B1: antibody 616 (antibody, V domains shown)
VH: QIHLVQSGPELKKPGETVRISCKASGYTFTTYGMSWVKQAPGKALKWMGWINTYSGVPTYADDFKGRFAFSLETSASTAYLQINNLKNEDTATYFCTREGSTMVTRYYFDYWGQGTTLTVSS
VL: DIVMTQAAPSVPVTPGESVSISCRSSKSLLHSNGNTYLYWFLQRPGQSPQLLIYRMSNLASGVPDRFSGSGSGTAFTLRISRVEAEDVGVYHCMQHLESPYTFGGGTTLEIK
B2: antibody 623 (antibody, V domains shown)
VH: B1 VH with H3Q, R19K, A44G, Y94F, T97A
VL: B1 VL with H92Y, S99Y, Y101S, T108K
B3: antibody 619 (antibody, V domains shown)
VH: B1 VH with H3Q, R19K, A44G, T97A
VL: B1 VL with L51V, H92Y, T108K
B4: antibody 617 (antibody, V domains shown)
VH: QVQLQLPGAELVKPGASVKVSCKASAYTFTSYWMHWVKQRPGQGLEWIGRIHPSDSDTNYNQNFKGKATLTVDKSSNTAYMQLSSLTSEDSAVYYCATGFSFWGQGTLVTVSA
VL: DIVMTQSHKFMSTSVGDRVSITCKASQDVSTTVAWYQQKPGQSPKLLIYSASYRYTGVPDRFTGSGSGTDFTFTISSVQAEDLAVYYCQQHYSTRPTFGGGTKLEIK

What follows are binders tested against Pep1/Pep2 (assay: ELISA, coated peptide).
B1 gave an ELISA O.D. of 0.069 O.D.
B2 gave an ELISA O.D. of 0.098 O.D.
For B3, the ELISA O.D. was 0.064 O.D.
B4 showed an ELISA O.D. of 0.102 O.D.
